Reference: paper PMC9171630 (Proceedings of the National Academy of Sciences of the …, 2022)

B3: KaiA (natural protein)
chain: MLSQIAICIWVESTAILQDCQRALSADRYQLQVCESGEMLLEYAQTHRDQIDCLILVAANPSFRAVVQQLCFEGVVVPAIVVGDRDSEDPDEPAKEQLYHSAELHLGIHQLEQLPYQVDAALAEFLRLAPVETMADHIMLMGANHDPELSSQQRDLAQRLQERLGYLGVYYKRDPDRFLRNLPAYESQKLHQAMQTSYREIVLSYFSPNSNLNQSIDNFVNMAFFADVPVTKVVEIHMELMDEFAKKLRVEGRSEDILLDYRLTLIDVIAHLCEMYRRSIPRET

Assays:
KaiC^E357Q-AA = biological target: T1, KaiC^E357Q-AA (Synechococcus elongatus PCC 7942, UniProt Q79PF4 1-519, E357Q | S431A | T432A); experiment: native gel or EMSA
T1 sequence: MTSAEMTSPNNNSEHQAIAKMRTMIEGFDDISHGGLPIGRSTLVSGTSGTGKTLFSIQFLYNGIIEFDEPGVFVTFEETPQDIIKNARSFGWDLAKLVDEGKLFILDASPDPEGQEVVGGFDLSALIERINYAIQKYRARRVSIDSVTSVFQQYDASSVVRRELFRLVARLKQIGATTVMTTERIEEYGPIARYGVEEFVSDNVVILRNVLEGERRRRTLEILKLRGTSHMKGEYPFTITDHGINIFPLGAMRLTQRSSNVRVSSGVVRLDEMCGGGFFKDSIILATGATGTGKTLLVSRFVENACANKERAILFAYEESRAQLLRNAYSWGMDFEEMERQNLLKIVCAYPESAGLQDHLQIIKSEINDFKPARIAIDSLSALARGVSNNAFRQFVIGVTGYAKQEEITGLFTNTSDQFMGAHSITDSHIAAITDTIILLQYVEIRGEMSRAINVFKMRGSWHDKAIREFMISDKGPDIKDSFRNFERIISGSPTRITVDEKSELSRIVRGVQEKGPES

KaiA = biological target: B3; experiment: SEC-MALS
crystal structure = biological target: the molecule itself; experiment: crystal structure
[1] = biological target: T2, KaiB–KaiC-ST complex (preformed for 48 h) ( | Synechococcus elongatus …, UniProt Q79PF5;Q79PF4); experiment: SEC-MALS
T2 sequence 1: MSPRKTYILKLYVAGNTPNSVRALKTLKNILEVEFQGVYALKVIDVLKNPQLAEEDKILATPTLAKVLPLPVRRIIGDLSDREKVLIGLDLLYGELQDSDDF
T2 sequence 2: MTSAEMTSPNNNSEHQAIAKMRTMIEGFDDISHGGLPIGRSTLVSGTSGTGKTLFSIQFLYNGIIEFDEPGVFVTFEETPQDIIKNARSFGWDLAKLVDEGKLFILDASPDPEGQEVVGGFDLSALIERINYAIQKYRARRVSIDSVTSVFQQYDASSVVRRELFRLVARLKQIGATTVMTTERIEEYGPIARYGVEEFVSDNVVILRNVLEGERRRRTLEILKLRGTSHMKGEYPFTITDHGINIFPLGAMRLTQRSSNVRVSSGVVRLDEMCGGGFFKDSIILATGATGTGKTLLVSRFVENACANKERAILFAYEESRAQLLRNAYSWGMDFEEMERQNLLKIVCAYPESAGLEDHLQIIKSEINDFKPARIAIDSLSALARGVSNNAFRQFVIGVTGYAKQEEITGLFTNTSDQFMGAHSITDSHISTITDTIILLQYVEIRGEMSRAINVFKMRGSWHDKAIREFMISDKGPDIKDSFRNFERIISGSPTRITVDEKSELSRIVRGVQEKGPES

[2] = biological target: T3, KaiB–KaiC^Δ505-ST complex (preformed) ( | Synechococcus elongatus …, UniProt Q79PF5;Q79PF4); experiment: SEC-MALS
T3 sequence 1: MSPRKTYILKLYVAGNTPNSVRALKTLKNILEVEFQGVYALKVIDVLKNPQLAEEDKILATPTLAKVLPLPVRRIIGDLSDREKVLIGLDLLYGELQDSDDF
T3 sequence 2: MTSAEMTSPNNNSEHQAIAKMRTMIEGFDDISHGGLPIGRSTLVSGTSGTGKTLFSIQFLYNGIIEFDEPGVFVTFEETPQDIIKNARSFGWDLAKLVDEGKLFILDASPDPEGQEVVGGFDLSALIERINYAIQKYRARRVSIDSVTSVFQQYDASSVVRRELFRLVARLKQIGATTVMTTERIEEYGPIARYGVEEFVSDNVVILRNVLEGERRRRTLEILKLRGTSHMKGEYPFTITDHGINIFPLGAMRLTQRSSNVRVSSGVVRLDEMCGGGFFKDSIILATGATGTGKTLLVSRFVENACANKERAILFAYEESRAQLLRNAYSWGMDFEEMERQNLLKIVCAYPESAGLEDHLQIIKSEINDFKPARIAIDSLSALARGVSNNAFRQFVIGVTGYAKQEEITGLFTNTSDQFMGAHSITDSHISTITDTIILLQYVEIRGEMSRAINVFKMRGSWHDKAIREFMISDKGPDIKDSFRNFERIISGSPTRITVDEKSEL

B1: KaiB (natural protein)
chain: MSPRKTYILKLYVAGNTPNSVRALKTLKNILEVEFQGVYALKVIDVLKNPQLAEEDKILATPTLAKVLPLPVRRIIGDLSDREKVLIGLDLLYGELQDSDDF
KaiC^E357Q-AA
  binding result: binds
KaiA
  binding result: binds

B2: S431A/T432A KaiC mutant (KaiC-AA) (enzyme)
chain: MTSAEMTSPNNNSEHQAIAKMRTMIEGFDDISHGGLPIGRSTLVSGTSGTGKTLFSIQFLYNGIIEFDEPGVFVTFEETPQDIIKNARSFGWDLAKLVDEGKLFILDASPDPEGQEVVGGFDLSALIERINYAIQKYRARRVSIDSVTSVFQQYDASSVVRRELFRLVARLKQIGATTVMTTERIEEYGPIARYGVEEFVSDNVVILRNVLEGERRRRTLEILKLRGTSHMKGEYPFTITDHGINIFPLGAMRLTQRSSNVRVSSGVVRLDEMCGGGFFKDSIILATGATGTGKTLLVSRFVENACANKERAILFAYEESRAQLLRNAYSWGMDFEEMERQNLLKIVCAYPESAGLEDHLQIIKSEINDFKPARIAIDSLSALARGVSNNAFRQFVIGVTGYAKQEEITGLFTNTSDQFMGAHSITDSHIAAITDTIILLQYVEIRGEMSRAINVFKMRGSWHDKAIREFMISDKGPDIKDSFRNFERIISGSPTRITVDEKSELSRIVRGVQEKGPES
Crystal structure
  stoichiometry N: 6

## B3
[1]
  binding result: binds
[2]
  binding result: binds
